The source of these data is FireProtDB (doi:10.1371/journal.ppat.1004158).

For this series the following is noted: Podospora anserina; pH 7.5; 25 °C; GdnHCl; optical density; whole UniProt chain shown.

B1: Heterokaryon incompatibility protein s wild type, Q03689 (protein)
chain: MSEPFGIVAGALNVAGLFNNCVDCFEYVQLGRPFGRDYERCQLRLDIAKARLSRWGEAVKINDDPRFHSDAPTDKSVQLAKSIVEEILLLFESAQKTSKRYELVADQQDLVVFEDKDMKPIGRALHRRLNDLVSRRQKQTSLAKKTAWALYDGKSLEKIVDQVARFVDELEKAFPIEAVCHKLAEIEIEEVEDEASLTILKDAAGGIDAAMSDAAAQKIDAIVGRNSAKDIRTEERARVQLGNVVTAAALHGGIRISDQTTNSVETVVGKGESRVLIGNEYGGKGFWDN
As for B1, the unfolding free energy came to 2.9 kcal/mol.
